Data reported in US20230218738A1 (Pfizer, published 2023).
Positions count from the first letter of the chain named.

T1: RSV F protein mutant pXCS849 (RSV A2, UniProt P03420 26-109)
T1 chain 1: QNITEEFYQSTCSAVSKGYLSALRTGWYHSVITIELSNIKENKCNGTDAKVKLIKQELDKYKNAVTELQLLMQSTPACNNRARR
T1 chain 2: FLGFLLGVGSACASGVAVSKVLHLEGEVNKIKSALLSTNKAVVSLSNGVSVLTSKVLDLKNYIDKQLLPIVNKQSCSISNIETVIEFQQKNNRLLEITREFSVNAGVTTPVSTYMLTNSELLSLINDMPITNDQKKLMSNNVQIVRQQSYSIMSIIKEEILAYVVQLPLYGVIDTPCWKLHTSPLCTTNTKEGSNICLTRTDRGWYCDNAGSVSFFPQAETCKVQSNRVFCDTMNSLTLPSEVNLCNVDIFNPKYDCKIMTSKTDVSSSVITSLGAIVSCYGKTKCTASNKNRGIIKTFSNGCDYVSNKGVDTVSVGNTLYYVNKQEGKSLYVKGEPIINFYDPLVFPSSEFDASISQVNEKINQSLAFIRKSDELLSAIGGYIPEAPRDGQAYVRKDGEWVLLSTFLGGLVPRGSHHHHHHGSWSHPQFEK

T2: RSV F protein mutant pXCS855 (RSV A2, UniProt P03420 26-109)
T2 chain 1: T1 chain 1 with S30C, C78T
T2 chain 2: T1 chain 2 with C12I, L52C, S54I, I160V

T3: RSV F protein mutant pXCS890 (RSV A2, UniProt P03420 26-109)
T3 chain 1: T1 chain 1
T3 chain 2: T1 chain 2 with S54I, S350D

T4: RSV F protein mutant pXCS882 (RSV A2, UniProt P03420 26-109)
T4 chain 1: T1 chain 1 with S30C, C78T
T4 chain 2: T1 chain 2 with L6C, C12I, L52C, S54I, N235C, E351Q, D353S

T5: RSV F protein mutant pXCS752 (RSV A2, UniProt P03420 26-109)
T5 chain 1: T1 chain 1
T5 chain 2: T1 chain 2 with S350D

B1: AM22 (antibody, V domains shown)
VH: QVQLVQSGAEVKKPGATVKVSCKISGHTLIKLSIHWVRQAPGKGLEWMGGYEGEVDEIFYAQKFQHRLTVIADTATDTVYMELGRLTSDDTAVYFCGTLGVTVTEAGLGIDDYWGQGTLVTVSS
VL: EIVLTQSPGTLSLSPGERATLSCRASQIVSRNHLAWYQQKPGQAPRLLIFGASSRATGIPVRFSGSGSGTDFTLTINGLAPEDFAVYYCLSSDSSIFTFGPGTKVDFK
B2: MPE8 (antibody, V domains shown)
VH: EVQLVESGGGLVKPGGSLRLSCAASGFTFSSYSMNWVRQAPGKGLEWVSSISASSSYSDYADSAKGRFTISRDNAKTSLFLQMNSLRAEDTAIYFCARARATGYSSITPYFDIWGQGTLVTVSS
VL: QSVVTQTPSVSGAPGQRVTISCTGSSSNIGAGYDVHWYQQLPGTAPKLLIYDNNNRPSGVPDRFSASKSGTSASLAITGLQAEDEADYYCQSYDRNLSGVFGTGTKVTVL
notes: also called MPEG

Tests used:
Assay in all cases: BLI (Octet), F on anti-HIS tip, 20 nM mAb
[1] = target: T1, RSV F protein mutant pXCS849
[2] = target: T2, RSV F protein mutant pXCS855
[3] = target: T3, RSV F protein mutant pXCS890
[4] = target: T4, RSV F protein mutant pXCS882
[5] = target: T5, RSV F protein mutant pXCS752

Row | Binder | Response (nm shift) [1] [nm] | Response (nm shift) [2] [nm] | Response (nm shift) [3] [nm] | Response (nm shift) [4] [nm] | Response (nm shift) [5] [nm]
1 | B1 | 0.43 | 0.523 | 0.538 | 0.219 | 0.234
2 | B2 | 0.908 | 0.982 | 0.999 | 0.691 | 0.703
